Data taken from article PMC3596305, “Escherichia coli NemA Is an Efficient Chromate Reductase That Can Be Biologically Immobilized to Provide a Cell Free System for Remediation of Hexavalent Chromium” (PLoS ONE, 2013).

B1: NemA_Ec (Escherichia coli K-12) (protein)
chain: MSSEKLYSPLKVGAITAANRIFMAPLTRLRSIEPGDIPTPLMAEYYRQRASAGLIISEATQISAQAKGYAGAPGIHSPEQIAAWKKITAGVHAENGHMAVQLWHTGRISHASLQPGGQAPVAPSALSAGTRTSLRDENGQAIRVETSMPRALELEEIPGIVNDFRQAIANAREAGFDLVELHSAHGYLLHQFLSPSSNHRTDQYGGSVENRARLVLEVVDAGIEEWGADRIGIRVSPIGTFQNTDNGPNEEADALYLIEQLGKRGIAYLHMSEPDWAGGEPYTDAFREKVRARFHGPIIGAGAYTVEKAETLIGKGLIDAVAFGRDWIANPDLVARLQRKAELNPQRAESFYGGGAEGYTDYPTL
notes: free enzyme (not PhaC fusion)
B2: Frp_Vh1 (Vibrio harveyi) (protein)
chain: MNNTIETILAHRSIRKFTAVPITDEQRQTIIQAGLAASSSSMLQVVSIVRVTDSEKRNELAQFAGNQAYVESAAEFLVFCIDYQRHATINPDVQADFTELTLIGAVDSGIMAQNCLLAAESMGLGGVYIGGLRNSAAQVDELLGLPENSAVLFGMCLGHPDQNPEVKPRLPAHVVVHENQYQELNLDDIQSYDQTMQAYYASRTSNQKLSTWSQEVTGKLAGESRPHILPYLNSKGLAKR
B3: MdaB_Ec (Escherichia coli K-12) (protein)
chain: SNILIINGAKKFAHSNGQLNDTLTEVADGTLRDLGHDVRIVRADSDYDVKAEVQNFLWADVVIWQMPGWWMGAPWTVKKYIDDVFTEGHGTLYASDGRTRKDPSKKYGSGGLVQGKKYMLSLTWNAPMEAFTEKDQFFHGVGVDGVYLPFHKANQFLGMEPLPTFIANDVIKMPDVPRYTEEYRKHLVEIFG
B4: NfsB_Vv (Vibrio vulnificus YJ016) (protein)
chain: MTIVQAAQSRYSTKAFDASRKLPEEKVAAVKELIRMSASSVNSQPWHFIVASSEEGKARIAKATQGGFAFNERKILDASHVVVFCAKTAIDEAYLLDLLESEDKDGRFADVEAKNGMHAGRSFFVNMHRFDLKDAHHWMEKQVYLNVGTLLLGASAMEIDAVPIEGFDAKVLDEEFGLREKGFTSVVIVPLGYHSEDDFNAKLPKSRWSAETVFTEI
B5: NfsB_Kp (Klebsiella pneumoniae subsp. pneumoniae MGH 78578) (protein)
chain: MDIVSVALKRYSTKAFDATKKLTAGEAEQLKTLLQYSPSSTNSQPWHFIVASTDEGKARVAKAASGTYVFNERKILDASHVVVFCAKTAMDDAWLQRVVDQEEADGRFATPDAKAANHKGRTFFADMHRKELKDDDQWMAKQVYLNVGNFLLGVAAMGLDAVPIEGVDFAILDEEFDLKAQGYTSLVVVPVGHHSAEDFNATLPKSRLPQSTTITEI
B6: YcnD_Bs (Bacillus subtilis subsp. subtilis str. 168) (protein)
chain: MNEVIKSLTDHRSIRSYTDEPVAQEQLDQIIEAVQSAPSSINGQQVTVITVQDKERKKKISELAGGQPWIDQAPVFLLFCADFNRAKIALEDLHDFKMEITNGLESVLVGAVDAGIALGTATAAAESLGLGTVPIGAVRGNPQELIELLELPKYVFPLSGLVIGHPADRSAKKPRLPQEAVNHQETYLNQDELTSHIQAYDEQMSEYMNKRTNGKETRNWSQSIASYYERLYYPHIREMLEKQGFKVEK
B7: YdgI_Bs (Bacillus subtilis subsp. subtilis str. 168) (protein)
chain: MIKTNDFMEIMKGRRSIRNYDPAVKISKEEMTEILEEATTAPSSVNAQPWRFLVIDSPEGKEKLAPLASFNQTQVTTSSAVIAVFADMNNADYLEEIYSKAVELGYMPQEVKDRQIAALTAHFEKLPAQVNRETILIDGGLVSMQLMLTARAHGYDTNPIGGYDKENIAETFGLDKERYVPVMLLSIGKAADEGYASYRLPIDTIAEWK
B8: NfsA_Kp (Klebsiella pneumoniae) (protein)
chain: MTPTIELLRSHRSIRHFTDAPVSDEQRAEIIASAQAASTSSFLQCTSIIRITDPALRERLVPLTGGQQHVAQAAEFWVFCADFNRHLQICPQAQLGLAEQLLIGVVDTALLAQNALTAAESLGLGGVYIGGLRNSIEAVTELLELPQHVLPLFGLCLGWPADNPDIKPRMPAAMLVHENRYQPLDNALLAEYDEQLAHYYLSRGSNARRDTWSDHIRRTIVKESRPFILDYLHKQGWATR
B9: ChrR_Pa (Pseudomonas aeruginosa PAO1) (protein)
chain: MSDDIKVLGISGSLRSGSYNSAALQEAIGLVPPGMSIELADISGIPLYNEDVYALGFPPAVERFREQIRAADALLFATPEYNYSMAGVLKNAIDWASRPPEQPFSGKPAAILGASAGRFGTARAQYHLRQTLVFLDVHPLNKPEVMISSAQNAFDAQGRLLDDKARELIQQQLQALQLWVRRLRG
B10: AzoR_Ec (Escherichia coli K-12) (protein)
chain: SKVLVLKSSILAGYSQSNQLSDYFVEQWREKHSADEITVRDLAANPIPVLDGELVGALRPSDAPLTPRQQEALALSDELIAELKAHDVIVIAAPMYNFNISTQLKNYFDLVARAGVTFRYTENGPEGLVTGKKAIVITSRGGIHKDGPTDLVTPYLSTFLGFIGITDVKFVFAEGIAYGPEMAAKAQSDAKAAIDSIVSA

Substrate: NC(=O)C1=CN([C@@H]2O[C@H](COP(=O)(O)OP(=O)(O)OC[C@H]3O[C@@H](n4cnc5c(N)ncnc54)[C@H](O)[C@@H]3O)[C@@H](O)[C@H]2O)C=CC1
Assay: diphenylcarbazide Cr(VI) assay, Lineweaver-Burk
Assay type: biochemical, Escherichia coli
Details: 150 µM Cr(VI), 22°C, pH 7.0, free enzyme, varied: cofactor

Row | Protein | Km [µM]
1 | B1 | 450 ± 30

Substrate: [O]=[Cr](=[O])([OH])[OH]
Assay: purified protein
Details: 1 mM NADH, 50 mM Tris-Cl pH 7.0, 22°C

Row | Protein | Km [µM] | kcat [s⁻¹] | kcat/Km [M⁻¹ s⁻¹]
2 | B2 | 3.8 ± 0.5 | 0.32 | 84000
3 | B3 | 170 ± 120 | 0.2 | 1100
4 | B4 | 2200 | 0.8 | 360
5 | B5 | 47 ± 4 | 0.37 | 7800
6 | B6 | 73 ± 2 | 0.37 | 5000
7 | B7 | 63 ± 1 | 0.48 | 7700
8 | B8 | 1.7 ± 1.0 | 0.12 | 69000
9 | B9 | 1300 ± 100 | 1.5 | 1100

Same assay, conditions: 1 mM NADH, 50 mM Tris-Cl pH 7.0, 22°C, free enzyme

Row | Protein | Km [µM] | kcat [s⁻¹] | kcat/Km [M⁻¹ s⁻¹]
10 | B1 | 16 ± 9 | 1 | 110000

Substrate: [O]=[Cr](=[O])([OH])[OH]
Assay: cells, lysate or membranes named
Details: 1 mM NADH, 50 mM Tris-Cl pH 7.0, 22°C, no lysate or lawsone added

Row | Protein | Km [µM] | kcat [s⁻¹] | kcat/Km [M⁻¹ s⁻¹]
11 | B10 | 380 | 0.03 | 87
